Results on 4 molecules are retold here after patent US20160355588A1 (published 2016).

Like-named read-outs stand apart in the source and are kept apart here.

The target in experiment [1] is T1, CD3 on Jurkat T cells (human, UniProt P07766 23-207). Description: whole cell binding.
In experiment [2] the target is T1, CD3 on Jurkat T cells. In words: whole cell binding. The source holds these as a separate data set.
Experiment [3] concerns the target T1, CD3 on Jurkat T cells.
The target of experiment [4] is T1, CD3 on Jurkat T cells. This is another data set of the same source.
In experiment [5] the target is v6475. In words: whole cell binding.
Experiment [6] concerns the target v1653. In words: whole cell binding.

What is called Kd is the concentration at which binding is half-saturated. A high value points to a looser complex.

B1: v875 (bispecific antibody)
chain 1: DIQLTQSPASLAVSLGQRATISCKASQSVDYDGDSYLNWYQQIPGQPPKLLIYDASNLVSGIPPRFSGSGSGTDFTLNIHPVEKVDAATYHCQQSTEDPWTFGGGTKLEIKGGGGSGGGGSGGGGSQVQLQQSGAELVRPGSSVKISCKASGYAFSSYWMNWVKQRPGQGLEWIGQIWPGDGDTNYNGKFKGKATLTADESSSTAYMQLSSLASEDSAVYFCARRETTTVGRYYYAMDYWGQGTTVTVSSAAEPKSSDKTHTCPPCPAPELLGGPSVFLFPPKPKDTLMISRTPEVTCVVVDVSHEDPEVKFNWYVDGVEVHNAKTKPREEQYNSTYRVVSVLTVLHQDWLNGKEYKCKVSNKALPAPIEKTISKAKGQPREPQVYTYPPSRDELTKNQVSLTCLVKGFYPSDIAVEWESNGQPENNYKTTPPVLDSDGSFALVSKLTVDKSRWQQGNVFSCSVMHEALHNHYTQKSLSLSPGK
chain 2: not shown
Turning to B1, the dissociation constant Kd in experiment [1] and in experiment [2] was roughly 30 nM throughout.

B2: v6750 (bispecific antibody)
heavy: QVQLQQSGAELVRPGSSVKISCKASGYAFSSYWMNWVKQRPGQGLEWIGQIWPGDGDTNYNGKFKGKATLTADESSSTAYMQLSSLASEDSAVYFCARRETTTVGRYYYAMDYWGQGTTVTVSSASTKGPSVFPLAPSSKSTSGGTAALGCLVKDYFPEPVTVSWNSGALTSGVHTFPAVLQSSGLYSLSSVVTVPSSSLGTQTYICNVNHKPSNTKVDKKVEPKSCDKTHTCPPCPAPELLGGPSVFLFPPKPKDTLMISRTPEVTCVVVDVSHEDPEVKFNWYVDGVEVHNAKTKPREEQYNSTYRVVSVLTVLHQDWLNGKEYKCKVSNKALPAPIEKTISKAKGQPREPQVYVYPPSRDELTKNQVSLTCLVKGFYPSDIAVEWESNGQPENNYKTTPPVLDSDGSFALVSKLTVDKSRWQQGNVFSCSVMHEALHNHYTQKSLSLSPG
chain: not shown
light: not shown
For B2, the Kd in experiment [3] and in experiment [4] was roughly 30 nM in each case.

B3: v1853 (bispecific antibody)
heavy: QVQLVQSGGGVVQPGRSLRLSCKASGYTFTRYTMHWVRQAPGKGLEWIGYINPSRGYTNYNQKVKDRFTISRDNSKNTAFLQMDSLRPEDTGVYFCARYYDDHYCLDYWGQGTPVTVSSASTKGPSVFPLAPSSKSTSGGTAALGCLVKDYFPEPVTVSWNSGALTSGVHTFPAVLQSSGLYSLSSVVTVPSSSLGTQTYICNVNHKPSNTKVDKKVEPKSCDKTHTCPPCPAPELLGGPSVFLFPPKPKDTLMISRTPEVTCVVVDVSHEDPEVKFNWYVDGVEVHNAKTKPREEQYNSTYRVVSVLTVLHQDWLNGKEYKCKVSNKALPAPIEKTISKAKGQPREPQVYVYPPSRDELTKNQVSLTCLVKGFYPSDIAVEWESNGQPENNYKTTPPVLDSDGSFALVSKLTVDKSRWQQGNVFSCSVMHEALHNHYTQKSLSLSPGK
chain: not shown
light: DIQMTQSPSSLSASVGDRVTITCSASSSVSYMNWYQQTPGKAPKRWIYDTSKLASGVPSRFSGSGSGTDYTFTISSLQPEDIATYYCQQWSSNPFTFGQGTKLQITRTVAAPSVFIFPPSDEQLKSGTASVVCLLNNFYPREAKVQWKVDNALQSGNSQESVTEQDSKDSTYSLSSTLTLSKADYEKHKVYACEVTHQGLSSPVTKSFNRGEC
Take B3: the Kd in experiment [1] and in experiment [2] was roughly 5 nM throughout.

B4: Raji B cells (receptor)
chain: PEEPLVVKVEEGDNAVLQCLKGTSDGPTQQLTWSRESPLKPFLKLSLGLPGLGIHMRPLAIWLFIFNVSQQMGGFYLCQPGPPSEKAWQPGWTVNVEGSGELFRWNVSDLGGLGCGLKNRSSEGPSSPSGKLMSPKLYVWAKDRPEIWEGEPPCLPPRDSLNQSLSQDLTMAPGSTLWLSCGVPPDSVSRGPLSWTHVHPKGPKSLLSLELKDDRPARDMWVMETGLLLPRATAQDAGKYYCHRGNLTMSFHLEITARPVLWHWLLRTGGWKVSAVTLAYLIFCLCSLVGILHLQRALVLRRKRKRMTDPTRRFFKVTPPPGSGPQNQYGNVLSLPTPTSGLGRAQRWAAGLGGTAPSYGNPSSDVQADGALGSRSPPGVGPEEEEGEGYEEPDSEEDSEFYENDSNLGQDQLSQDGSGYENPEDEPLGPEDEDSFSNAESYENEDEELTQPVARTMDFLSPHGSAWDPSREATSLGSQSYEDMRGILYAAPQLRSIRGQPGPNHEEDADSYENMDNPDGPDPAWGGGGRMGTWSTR
In the case of B4, the Kd in experiment [5] amounted to 1.5 nM; in experiment [6], 1.4 nM.
